What was measured:
[1] = target: recombinant Factor VIIa (rFVIIa)
[2] = target: recombinant Factor VIIa (rFVIIa); test: BLI; Octet Red, Ni-NTA biosensors, 37 °C, 1000 rpm; association 180 sec, dissociation 10 min; 1:1 model, global fit; the legend of Figure 4b says rFVIIa was immobilised

Chain of recombinant Factor VIIa (rFVIIa) (P08709 whole entry): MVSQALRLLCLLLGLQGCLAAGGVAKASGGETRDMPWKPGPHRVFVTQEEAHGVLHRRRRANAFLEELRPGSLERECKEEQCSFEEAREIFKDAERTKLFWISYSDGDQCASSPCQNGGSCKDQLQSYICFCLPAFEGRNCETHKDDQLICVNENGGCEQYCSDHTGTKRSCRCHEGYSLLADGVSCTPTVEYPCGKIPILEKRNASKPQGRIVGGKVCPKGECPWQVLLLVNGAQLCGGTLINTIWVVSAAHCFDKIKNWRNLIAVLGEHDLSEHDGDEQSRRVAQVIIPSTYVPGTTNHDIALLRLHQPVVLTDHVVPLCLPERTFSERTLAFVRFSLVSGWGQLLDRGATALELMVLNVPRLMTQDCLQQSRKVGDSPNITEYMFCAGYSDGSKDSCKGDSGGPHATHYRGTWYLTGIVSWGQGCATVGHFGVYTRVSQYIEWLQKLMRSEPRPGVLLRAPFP

prothrombin time (PT) in citrated human plasma, maximal fold prolongation over normal clotting time [1]: 3 fold
Kd [2]: 6.2 nM
Binder: ALCDDPRVDRWYCQFVEG [E-76 peptide]

— paper PMC5118791
